Test system: platelets
Assay: Platelet aggregation
Assay type: cell-based, human

B1: ApoD: plasma lipocalin constituent of HDL, recombinant 6xHis, expressed in HEK293 cells (protein, UniProt P05090 21-189, looked up)
Apolipoprotein D: QAFHLGKCPNPPVQENFDVNKYLGRWYEIEKIPTTFENGRCIQANYSLMENGKIKVLNQELRADGTVNQIEGEATPVNLTEPAKLEVKFSWFMPSAPYWILATDYENYALVYSCTCIIQLFHVDFAWILARNPNLPPETVDSLKNILTSNNIDVKKMTVTDQVNCPKLS
modifications: 6xHis tag
did not inhibit: Inhibition of AA-induced platelet aggregation (low doses of AA, ApoD expressed in HEK293 cells) | Inhibition of U46619-induced platelet aggregation (low doses of U46619, ApoD expressed in HEK293 cells) | Inhibition of collagen-induced platelet aggregation (low doses of collagen, ApoD expressed in HEK293 cells)

Source: publication PMC3408606 (Thrombosis and haemostasis, 2011)
